Experiments:
[1] = target: Lys6-linked diubiquitin, P0CG48
[2] = target: Lys29-linked diubiquitin, P0CG48
[3] = target: Lys63-linked diubiquitin (enzymatically assembled), P0CG48
Lys63-linked diubiquitin (enzymatically assembled), P0CG48, sequence (P0CG48 whole entry, looked up): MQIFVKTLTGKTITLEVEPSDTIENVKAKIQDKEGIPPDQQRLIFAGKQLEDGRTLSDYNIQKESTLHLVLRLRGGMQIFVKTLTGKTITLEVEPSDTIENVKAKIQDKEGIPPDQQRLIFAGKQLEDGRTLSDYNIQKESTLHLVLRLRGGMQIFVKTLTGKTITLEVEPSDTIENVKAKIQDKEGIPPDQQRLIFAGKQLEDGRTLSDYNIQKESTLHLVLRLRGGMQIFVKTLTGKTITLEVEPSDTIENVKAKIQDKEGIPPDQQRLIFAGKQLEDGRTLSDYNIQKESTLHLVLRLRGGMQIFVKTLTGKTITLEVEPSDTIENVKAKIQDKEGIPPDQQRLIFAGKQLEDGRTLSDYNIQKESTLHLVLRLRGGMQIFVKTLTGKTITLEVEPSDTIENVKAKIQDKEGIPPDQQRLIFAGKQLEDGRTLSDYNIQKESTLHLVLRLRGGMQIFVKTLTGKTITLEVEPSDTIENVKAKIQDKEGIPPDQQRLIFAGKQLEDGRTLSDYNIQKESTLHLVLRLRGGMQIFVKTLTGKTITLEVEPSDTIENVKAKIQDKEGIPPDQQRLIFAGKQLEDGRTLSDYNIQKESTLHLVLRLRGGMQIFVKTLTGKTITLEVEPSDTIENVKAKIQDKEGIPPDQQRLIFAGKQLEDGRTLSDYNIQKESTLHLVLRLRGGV

Lys6-linked diubiquitin, P0CG48, sequence (P0CG48 whole entry, looked up): as above
Lys29-linked diubiquitin, P0CG48, sequence (P0CG48 whole entry, looked up): as above

B1: USP15 (protein)
chain: MAEGGAADLDTQRSDIATLLKTSLRKGDTWYLVDSRWFKQWKKYVGFDSWDKYQMGDQNVYPGPIDNSGLLKDGDAQSLKEHLIDELDYILLPTEGWNKLVSWYTLMEGQEPIARKVVEQGMFVKHCKVEVYLTELKLCENGNMNNVVTRRFSKADTIDTIEKEIRKIFSIPDEKETRLWNKYMSNTFEPLNKPDSTIQDAGLYQGQVLVIEQKNEDGTWPRGPSTPKSPGASNFSTLPKISPSSLSNNYNNMNNRNVKNSNYCLPSYTAYKNYDYSEPGRNNEQPGLCGLSNLGNTCFMNSAIQCLSNTPPLTEYFLNDKYQEELNFDNPLGMRGEIAKSYAELIKQMWSGKFSYVTPRAFKTQVGRFAPQFSGYQQQDCQELLAFLLDGLHEDLNRIRKKPYIQLKDADGRPDKVVAEEAWENHLKRNDSIIVDIFHGLFKSTLVCPECAKISVTFDPFCYLTLPLPMKKERTLEVYLVRMDPLTKPMQYKVVVPKIGNILDLCTALSALSGIPADKMIVTDIYNHRFHRIFAMDENLSSIMERDDIYVFEININRTEDTEHVIIPVCLREKFRHSSYTHHTGSSLFGQPFLMAVPRNNTEDKLYNLLLLRMCRYVKISTETEETEGSLHCCKDQNINGNGPNGIHEEGSPSEMETDEPDDESSQDQELPSENENSQSEDSVGGDNDSENGLCTEDTCKGQLTGHKKRLFTFQFNNLGNTDINYIKDDTRHIRFDDRQLRLDERSFLALDWDPDLKKRYFDENAAEDFEKHESVEYKPPKKPFVKLKDCIELFTTKEKLGAEDPWYCPNCKEHQQATKKLDLWSLPPVLVVHLKRFSYSRYMRDKLDTLVDFPINDLDMSEFLINPNAGPCRYNLIAVSNHYGGMGGGHYTAFAKNKDDGKWYYFDDSSVSTASEDQIVSKAAYVLFYQRQDTFSGTGFFPLDRETKGASAATGIPLESDEDSNDNDNDIENENCMHTN
B1 was tested. Which “cleavage in in vitro deubiquitinase assay (SDS-PAGE)” value (shortened to “cleavage”) [1] did it give?
Its value is “disassembled this chain type as efficiently as K63-linked chains”.

What about the “cleavage” value [2] of the same protein?
The value was “appreciably higher resistance to hydrolysis by USP2, USP15 and USP21 than K6- and K63-linked ubiquitin”.

And the “cleavage” value [3]?
Its value is “disassembled this chain type as efficiently as K63-linked chains”.

From patent US20160304571
